We go through two sequences from US20100261245.

The subject of the series is T1, VEGF, P15692-4.
T1 sequence: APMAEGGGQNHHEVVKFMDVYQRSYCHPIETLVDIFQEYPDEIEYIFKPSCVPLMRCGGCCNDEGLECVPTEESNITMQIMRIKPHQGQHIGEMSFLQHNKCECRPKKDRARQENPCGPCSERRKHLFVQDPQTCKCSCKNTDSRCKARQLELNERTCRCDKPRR
As to the kind of experiment: SPR. The settings on record: BIAcore 2000, VEGF immobilized, aptamer 30-500 nM. Background: SPR reads the build-up and loss of mass on a sensor chip optically.

On to “AUGCAGUUUGAGAAGUCGCGCAU [PEGylated anti-VEGF 2'-OMe-RNA aptamer]”, for which, where the note is “2'-OMe at all positions as printed, 5'-PEG 20 kDa (mPEG-SPA via 5' amine), PBS pH 7.4”, the Kd (usually the constant that tells how readily two partners part at equilibrium) stood at 87 nM.

“AUGCAGUUUGAGAAGUCGCGCAU [anti-VEGF 2'-OMe-RNA aptamer]”: the dissociation constant Kd (2'-OMe at all positions as printed (Am, Um, Gm, Cm), 5' terminal amine group stated for the PEGylation precursor, PBS pH 7.4 stated for the PEGylated aptamer) amounted to 1.87 nM.
